In the assay the target is recombinant protein of C-terminal domain of tetanus toxin heavy chain with C-terminal His tag (TT-Hc-His) (Clostridium tetani, UniProt P04958 865-1315).

A value given as a limit tells only on which side of the number the result lay.

B1: S22E2-h1-IgG1 (antibody, V domains shown)
VH: QVTLKESGPVLVKPTETLTLTCTVSGFSLTDYGVNWIRQPPGKALEWLGMIWSDGTTDYSSALKSRLTISKDTSKSQVVLTMTNMDPVDTATYYCARVDGYSHYYAMDYWGQGTLVTVSS
VL: DIQMTQSPSSLSASVGDRVTITCRASENIYSYLAWYQQKQGKAPQLLIYNAKTLAEGVSSRFSGSGSGTQFTLTISSLQPEDFATYYCQHHYGLPFTFGQGTKLEIK
Regarding B1, the dissociation constant Kd (usually the equilibrium constant for the complex coming apart) was 0.573 nM.

B2: S24B8-h1-IgG1 (antibody, V domains shown)
VH: QVQLVQSGAEVKKPGSSVKVSCKASGYTFTSYWIYWVRQAPGQGLEWIGEINPTNGFANYNEKFKTKATITVDKSTSTAYMELSSLRSEDTAVYYCAIHFRFPYWGQGTMVTVSS
VL: DIQMTQSPSSLSASVGDRVTITCRASQDIGSSLTWLQQKPGKAPKRLIYATSSLDSGVPSRFSGSGSGTDYTLTISSLQPEDFATYYCLQYASSPYTFGQGTKLEIK
Take B2: the off-rate (koff) – broadly, a measure of how fast the partners let go of each other – is less than 1e-05 s⁻¹.

B3: S24B8-h3-IgG1 (antibody, V domains shown)
VH: QVQLVQSGAEVKKPGSSVKVSCKASGYTFTSYWIYWVRQAPGQGLEWIGEINPTNAFANYNEKFKTKATITVDKSTSTAYMELSSLRSEDTAVYYCAIHFRFPYWGQGTMVTVSS
VL: DIQMTQSPSSLSASVGDRVTITCRASQDIGSSLTWLQQKPGKAPKRLIYATSSLDSGVPSRFSGSGSGTDYTLTISSLQPEDFATYYCLQYASSPYTFGQGTKLEIK
On to B3, for which the Kd amounted to 0.164 nM.

B4: S24B8-h2-IgG1 (antibody, V domains shown)
VH: QVQLVQSGAEVKKPGSSVKVSCKASGYTFTSYWIYWVRQAPGQGLEWIGEINPTAGFANYNEKFKTKATITVDKSTSTAYMELSSLRSEDTAVYYCAIHFRFPYWGQGTMVTVSS
VL: DIQMTQSPSSLSASVGDRVTITCRASQDIGSSLTWLQQKPGKAPKRLIYATSSLDSGVPSRFSGSGSGTDYTLTISSLQPEDFATYYCLQYASSPYTFGQGTKLEIK
Take B4: the equilibrium dissociation constant (Kd) came out at 0.385 nM.
